First the molecules themselves.
B1: HDV Ribozyme (parent)
chain: GGCCGGCAUGGUCCCAGCCUCCUCGCUGGCGCCGGCUGGGCAACAUUCCGAGGGGACCGUCCCCUCGGUAAUGGCGAAUGGGACCCA

This series covers variants of B1. Description: self-cleavage, relative activity (ratio to wild type); higher = more cleavage; co-transcriptional.
Regarding GGGCGGCAUGGUCCCAGCCUCCUCGCUGGCUCCGGCUGGGCAACAUUCCGAGGGGACCGUCCCCUCGGUAAUGGCGAAUGGGACCCA, the self-cleavage came to 0.0739.

On to GGGCGGCAUGGUCCCAGCCUCCUCGCUGGCGCCGGCUGGGCAACAUUCCGAGGGGACCGUCCCCUCGGUAAUGACGAAUGGGACCCA, for which the self-cleavage was 0.114.

As to GGUCGGCAUGGUCCCAGCCUCCUCGCUGGCGCCGGCUGGGCAACUUUCCGAGGGGACCGUCCCCUCGGUAAUGGCGAAUGGGACCCA, the self-cleavage turned out to be 0.432.

With GGGCGGCAUGGUCCCAGCCUCCUCGCUGGCGCCGGCUGUGCAACAUUCCGAGGGGACCGUCCCCUCGGUAAUGGCGAAUGGGACCCA, the self-cleavage came to 0.0989.

On to GGGCGGCAUGGUCCCAGCCUCCUCGCUGGCGCCGGCUGGGCAACAUUCCGAGGGAACCGUCCCCUCGGUAAUGGCGAAUGGGACCCA, for which the self-cleavage was determined as 0.76.

For the variant GGGCGGCAUGGUCCCAGCCUCCUCGCUGGCGCCGGCUGGGCAACAUUCCGAGGGUACCGUCCCCUCGGUAAUGGCGAAUGGGACCCA, the self-cleavage was determined as 0.821.

On to GGGCGGCAUGGUCCCAGCCUCCUCGCUGGCGCCGGCCGGGCAACAUUCCGAGGGGACCGUCCCCUCGGUAAUGGCGAAUGGGACCCA, for which the self-cleavage turned out to be 1.08.

Turning to GGGCGGCAUGGUCCCAGCCUCCUCGCUGGCGCCGGCUGGGCAACAUUCCGAGCGGACCGUCCCCUCGGUAAUGGCGAAUGGGACCCA, the self-cleavage was found to be 0.609.

Consider GGGCGGCAUGGUCCCAGCCUCCUCGCUGGAGCCGGCUGGGCAACAUUCCGAGGGGACCGUCCCCUCGGUAAUGGCGAAUGGGACCCA, for which the self-cleavage was determined as 0.0639.

On to GGGCGGCAUGGUCCCAGCCUCCUCGCUGGGGCCGGCUGGGCAACAUUCCGAGGGGACCGUCCCCUCGGUAAUGGCGAAUGGGACCCA, for which the self-cleavage was determined as 0.0594.

Turning to GGUCGGCAUGGUCCCAGCAUCCUCGCUGGCGCCGGCUGGGCAACAUUCCGAGGGGACCGUCCCCUCGGUAAUGGCGAAUGGGACCCA, the self-cleavage was 0.0573.

With GGGCGGCACGGUCCCAGCCUCCUCGCUGGCGCCGGCUGGGCAACAUUCCGAGGGGACCGUCCCCUCGGUAAUGGCGAAUGGGACCCA, the self-cleavage is 0.554.

Turning to GGGCGGCAUGGUCCCAGCCUCCCCGCUGGCGCCGGCUGGGCAACAUUCCGAGGGGACCGUCCCCUCGGUAAUGGCGAAUGGGACCCA, the self-cleavage came out at 0.48.

Take GGGCGGCAUGGUCCCAGCCUCCUCGCAGGCGCCGGCUGGGCAACAUUCCGAGGGGACCGUCCCCUCGGUAAUGGCGAAUGGGACCCA: the self-cleavage turned out to be 0.308.

Take GGGCGGCAUGGUCCCAGCCUCCUCGCUGGCGCCGGCUGGGCAACAUUCCGAGGGGACCGUCCCCUCGGUAAUGGCGAAUAGGACCCA: the self-cleavage turned out to be 0.0911.

With GGGCGGCAUGGUCCCAGCCUCCUCGCUGGCGCCGGCUGGGCAACAUUCCGAGGGGACCGUCCCCUCGGUAAUGGCGAAUCGGACCCA, the self-cleavage was determined as 0.0665.

As for GGGCGGCAUGGUCCCAGCCUCCUCGCUGGCGCCGGGUGGGCAACAUUCCGAGGGGACCGUCCCCUCGGUAAUGGCGAAUGGGACCCA, the self-cleavage is 0.0343.

Consider GGGCGGCAUGGUCCCAGCCUCCUCGCUGGCGCCGGCUGGGCAACAUUCCGAGGGGAACGUCCCCUCGGUAAUGGCGAAUGGGACCCA, for which the self-cleavage turned out to be 0.802.

For the variant GGGCGGCAUGGUCCCAGCCUCCUCGCUGGCGCCGGCUGGGCAACAUUCCGAGGUGACCGUCCCCUCGGUAAUGGCGAAUGGGACCCA, the self-cleavage came out at 0.702.

Regarding GGGCGGCAUGGUCCCAGCCUUCUCGCUGGCGCCGGCUGGGCAACAUUCCGAGGGGACCGUCCCCUCGGUAAUGGCGAAUGGGACCCA, the self-cleavage stood at 0.0326.

With GGGCGGCAUGGUCCCAGCCUCCUCUCUGGCGCCGGCUGGGCAACAUUCCGAGGGGACCGUCCCCUCGGUAAUGGCGAAUGGGACCCA, the self-cleavage stood at 0.0277.

GGGCGGCAUGGUCCCAGCCUCCUCGCUGGCGCCGGCUCGGCAACAUUCCGAGGGGACCGUCCCCUCGGUAAUGGCGAAUGGGACCCA: the self-cleavage was found to be 0.192.

Consider GGGCGGCAUGGUCCCAGCCUCCUCGCUGGCGCCGGCUAGGCAACAUUCCGAGGGGACCGUCCCCUCGGUAAUGGCGAAUGGGACCCA, for which the self-cleavage was 0.0386.

Take GGGCGGCAUGGUCCCAGCCUCCUCGCUGGCGCCGGCUGGGCAACAUUCCGAGGGGACCGUCCCCUCGGUAAUGGAGAAUGGGACCCA: the self-cleavage was 0.119.

Turning to GGGCGCCAUGGUCCCAGCCUCCUCGCUGGCGCCGGCUGGGCAACAUUCCGAGGGGACCGUCCCCUCGGUAAUGGCGAAUGGGACCCA, the self-cleavage was found to be 0.0475.

As to GGGCGGCAUGGUCCCAGCCUCCUCGCUGGCGCCGGCUGGGCAACAUUCCGAGGGGACCGUCCCCUCGGUAAGGGCGAAUGGGACCCA, the self-cleavage turned out to be 0.345.

Take GGUCGGCAUGGUCCCAGCCUCCUCGCUGGCGCCGGCUGGGCAACAUUCCGAGGGGCCCGUCCCCUCGGUAAUGGCGAAUGGGACCCA: the self-cleavage is 0.675.

On to GGUCGGCAUGGUCCCAGCCUCCUCGCUGGCGCCGGCUGGGCAACAUUCCGAGGGGACCGUCCCCUCGGUAAUGGCGUAUGGGACCCA, for which the self-cleavage was 0.354.

On to GGUCGGCAUGGUCCCAGCCUCCUCGCUGGCGCCGGCUGGGCAACAUUCCGAGGGGACCGUCCCCUCGGUAAUGGCGGAUGGGACCCA, for which the self-cleavage was determined as 0.739.

As to GGUCGGCAUGGUCCAAGCCUCCUCGCUGGCGCCGGCUGGGCAACAUUCCGAGGGGACCGUCCCCUCGGUAAUGGCGAAUGGGACCCA, the self-cleavage was determined as 0.481.

As to GGGCGGCAUGGUCCCAGCCUCCUCGCUGGCGCCGGCUGGGCAACAUUCCGAGGGGACCGUCCCCUGGGUAAUGGCGAAUGGGACCCA, the self-cleavage amounted to 0.761.

With GGGCGGCAUGGUCCCAGCCUCCUCGCUGGCGCCGGCUGGGCAACAUUCCGAGGGGACCGUCCCCUUGGUAAUGGCGAAUGGGACCCA, the self-cleavage was determined as 0.715.
